# Columns and labels:
# Format in all cases: cell-based
# Candida albicans [1] = experiment: Candida albicans growth by optical density, every 2 hrs up to 24 hrs (Example 1); details: single component alone, FIGS. 1 and 2
# Description: In this example, a manuka honey was mixed with lactoferrin at varying concentrations and the degree of Candida albicans growth was measured and compared to each of the individual components alone. Samples of honey alone being a manuka honey with a UMF rating of ˜15 were collected. The honey was diluted with distilled water to honey concentrations of 12.5, 11.25, 10, 8.75, 7.5 and 0% (w/v). Samples of lactoferrin alone were also collected and similarly diluted with distilled water to concentrations of 5 mg/mL (5%), 4.5 mg/mL (4.5%), 4 mg/mL (4%), 3.5 mg/mL (3.5%), 3 mg/mL (3%) and 0% (w/v). Mixed samples were then produced using honey concentrations of 12.5, 11.25, 10, 8.75, 7.5 and 0% (w/v) along with lactoferrin at a concentration of 5 mg/mL of lactoferrin. Four replications were completed for each of the samples. Microbial growth for each of the samples was then measured every 2 hrs continuously for up to 24 hrs, determined by measuring the optical density of the mixture.
# Candida albicans [2] = experiment: Candida albicans broth microtitre plate growth assay, absorbance at 650 nm, 28° C. (Example 4); details: honey alone (10% w/v, catalase) or lactoferrin alone (2.5-10 mg/ml); FIG. 6
# Description: A further set of Candida albicans repeat trials were completed where the growth of Candida albicans cultures in broth was measured when subjected to a 10% w/v manuka honey with catalase and lactoferrin treatments ranging from 2.5-10 mg/ml. To prevent filamentous growth, the assay temperature was 28° C. as used previously. The assay was a broth microtitre plate set-up. Growth was measured by absorbance at 650 nm. Catalase was added to remove the peroxide effect noted above.
# Candida albicans [3] = experiment: Candida albicans growth curves at 28° C. by absorbance (540 nm), percentage inhibition vs media alone (Examples 2 and 3); details: lactoferrin used in isolation, 0.2% and 0.6% w/v; FIG. 5
# Description: A further experiment was completed measuring the growth curves of Candida albicans grown at 28° C. measured by absorbance (540 nm). […] Catalase was added to remove any confounding effects from hydrogen peroxide. As may be appreciated, the peroxide effect can vary between and within honeys giving rise to poor results that are difficult to interpret. Removal of the peroxide effect gives clearer result. It should be noted that a lower growth temperature than usual was used to prevent filamentous growth, which is an artifact of these Candida assays. The results found were clean easily measurable results and were verified under a microscope to be accurate. A further experiment was completed measuring the percentage inhibition expressed as a proportion of Candida albicans growth in media alone. […] Catalase was added to remove the peroxide effect noted above.
molecule,measurement,setting,value
"lactoferrin (protein, UniProt P02788 20-710, looked up, metal chelator that scavenges free transition metal ions, specifically iron) Lactotransferrin: GRRRSVQWCAVSQPEATKCFQWQRNMRKVRGPPVSCIKRDSPIQCIQAIAENRADAVTLDGGFIYEAGLAPYKLRPVAAEVYGTERQPRTHYYAVAVVKKGGSFQLNELQGLKSCHTGLRRTAGWNVPIGTLRPFLNWTGPPEPIEAAVARFFSASCVPGADKGQFPNLCRLCAGTGENKCAFSSQEPYFSYSGAFKCLRDGAGDVAFIRESTVFEDLSDEAERDEYELLCPDNTRKPVDKFKDCHLARVPSHAVVARSVNGKEDAIWNLLRQAQEKFGKDKSPKFQLFGSPSGQKDLLFKDSAIGFSRVPPRIDSGLYLGSGYFTAIQNLRKSEEEVAARRARVVWCAVGEQELRKCNQWSGLSEGSVTCSSASTTEDCIALVLKGEADAMSLDGGYVYTAGKCGLVPVLAENYKSQQSSDPDPNCVDRPVEGYLAVAVVRRSDTSLTWNSVKGKKSCHTAVDRTAGWNIPMGLLFNQTGSCKFDEYFSQSCAPGSDPRSNLCALCIGDEQGENKCVPNSNERYYGYTGAFRCLAENAGDVAFVKDVTVLQNTDGNNNEAWAKDLKLADFALLCLDGKRKPVTEARSCHLAMAPNHAVVSRMDKVERLKQVLLHQQAKFGRNGSDCPDKFCLFQSETKNLLFNDNTECLARLHGKTTYEKYLGPQYVAGITNLKKCSTSPLLEACEFLRK",difference to controls without honey or lactoferrin after 24 hours,Candida albicans [1]; after 24 hours,little difference
same,degree of inhibition of microbial growth,Candida albicans [1]; honey 7.5-12.5% (w/v) or lactoferrin 3-5 mg/mL,relatively low
same,inhibition of growth,Candida albicans [2],minimal inhibition
same,percentage inhibition as a proportion of growth in media alone,Candida albicans [3],negligible effects

# From patent US20130273020A1, “ANTIFUNGAL COMPOSITION” (COMVITA NEW ZEALAND LIMITED, priority 2010, published 2013)
